This is an account of results in paper PMC4598844, “BAP1 promotes breast cancer cell proliferation and metastasis by deubiquitinating KLF5” (Nature Communications, 2015).

For the assay, the target named is T1, GST-BAP1, purified recombinant (human, UniProt Q92560 1-729).
T1 construct: BRCA1-associated protein 1 (BAP1), human, wild type, cloned from MCF10A cells into pGEX-6p-1; also called purified GST-BAP1; source: E. coli BL21 (DE3), purified (glutathione sepharose 4B)
T1 sequence (looked up): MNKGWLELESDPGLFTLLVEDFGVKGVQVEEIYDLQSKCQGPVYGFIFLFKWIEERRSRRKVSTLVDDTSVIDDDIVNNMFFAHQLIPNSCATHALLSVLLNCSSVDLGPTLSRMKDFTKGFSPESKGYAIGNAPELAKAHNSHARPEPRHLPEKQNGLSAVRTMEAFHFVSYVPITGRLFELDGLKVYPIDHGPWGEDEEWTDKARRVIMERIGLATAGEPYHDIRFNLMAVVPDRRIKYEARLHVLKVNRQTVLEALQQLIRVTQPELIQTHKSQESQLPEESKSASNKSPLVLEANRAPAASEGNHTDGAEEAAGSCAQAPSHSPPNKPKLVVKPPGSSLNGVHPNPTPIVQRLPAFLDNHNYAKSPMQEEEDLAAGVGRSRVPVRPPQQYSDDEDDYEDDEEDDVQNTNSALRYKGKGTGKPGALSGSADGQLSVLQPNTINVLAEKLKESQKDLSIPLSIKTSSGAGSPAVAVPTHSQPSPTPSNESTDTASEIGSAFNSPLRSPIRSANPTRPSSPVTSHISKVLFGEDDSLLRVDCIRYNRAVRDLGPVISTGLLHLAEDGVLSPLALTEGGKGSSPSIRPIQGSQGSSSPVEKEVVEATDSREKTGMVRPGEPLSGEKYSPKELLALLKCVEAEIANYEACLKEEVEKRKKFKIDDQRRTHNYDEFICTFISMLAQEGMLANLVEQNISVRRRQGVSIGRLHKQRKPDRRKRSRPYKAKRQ
As to the kind of experiment: pull-down; purified recombinant GST-BAP1 (and GST) pulled down with glutathione beads; KLF5-6 × His detected by WB. The note with it: both partners purified.

B1: KLF5-6 × His, purified recombinant (natural protein)
chain: not shown
notes: Krüppel-like zinc-finger transcription factor 5 (KLF5), subcloned into the pET28-3C vector; The tag is printed after the protein's name; not repeated for this construct; source: E. coli BL21 (DE3), purified (Ni-NTA)
For B1, the binding result was “binds”.
